Molecular target: eIF4E (mouse (endogenous in cerebellum)) (UniProt P63073)
Experiment: pull-down; m7GTP beads (30 ul) incubated with 500 ug mouse cerebellar lysate for 1 h at 4 C; lysis buffer 150 mM NaCl, 10 mM MgCl2, 30 mM tris pH 8.0, 1 mM DTT, 1.5% Triton X-100; washed three times in 100 mM KCl, 50 mM tris pH 7.4, 5 mM MgCl2, 0.5% Triton X-100; eIF4E and eIF4G blotted; eIF4G/eIF4E ratio normalized to the WT mean; CYFIP1 OE and WT mice

Chain of UniProt P63073 (P63073 whole entry): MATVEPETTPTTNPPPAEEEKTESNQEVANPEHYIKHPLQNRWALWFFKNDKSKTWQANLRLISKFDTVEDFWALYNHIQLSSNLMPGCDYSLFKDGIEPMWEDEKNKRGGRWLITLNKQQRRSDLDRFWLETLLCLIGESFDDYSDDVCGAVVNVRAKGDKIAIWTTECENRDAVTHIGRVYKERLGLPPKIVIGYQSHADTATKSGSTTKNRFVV

eIF4G/eIF4E binding ratio in CYFIP1 OE mice, normalized to WT mean (fold of WT mean): 1.68
Substance: eIF4G (natural protein)
